Assay results published in article doi:10.1101/212290 (bioRxiv, 2017).

Target: IscU-IscS complex (E. coli, UniProt P0A6B7;P0ACD4, biotin (site not stated))
Assay: BLI

Chain of IscU-IscS complex (P0A6B7 whole entry, chain 1 of 2): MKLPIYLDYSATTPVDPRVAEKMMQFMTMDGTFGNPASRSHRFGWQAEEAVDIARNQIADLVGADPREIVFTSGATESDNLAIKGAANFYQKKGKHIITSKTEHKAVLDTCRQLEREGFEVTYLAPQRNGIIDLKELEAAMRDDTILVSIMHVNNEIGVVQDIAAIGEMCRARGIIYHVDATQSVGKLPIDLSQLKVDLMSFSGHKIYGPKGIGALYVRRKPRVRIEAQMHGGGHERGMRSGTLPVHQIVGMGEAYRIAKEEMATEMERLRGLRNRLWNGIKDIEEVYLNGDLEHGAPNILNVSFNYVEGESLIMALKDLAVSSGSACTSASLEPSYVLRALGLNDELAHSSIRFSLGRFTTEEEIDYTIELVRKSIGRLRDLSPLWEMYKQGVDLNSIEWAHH
Chain of IscU-IscS complex (P0ACD4 2-128, chain 2 of 2): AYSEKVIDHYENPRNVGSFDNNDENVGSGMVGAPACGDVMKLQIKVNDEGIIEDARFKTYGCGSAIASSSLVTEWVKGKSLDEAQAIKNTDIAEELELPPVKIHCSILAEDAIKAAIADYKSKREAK

B1: IscX (natural protein)
chain: MGLKWTDSREIGEALYDAYPDLDPKTVRFTDMHQWICDLEDFDDDPQASNEKILEAILLVWLDEAE
modifications: most likely a mixed disulfide with beta-mercaptoethanol (+76 Da) on the majority of the protein
Kd: 8 ± 2 µM
